According to patent US20210147541A1 (Kyowa Kirin, published 2021):
Like-named read-outs stand apart in the source and are kept apart here.

T1: human CADM3 (human, UniProt Q8N126 25-398)
T1 construct: Full-length gene expressed transiently on Expi293F cells; also called cell adhesion molecule 3; human CADM3/Expi293F cells
T1 sequence: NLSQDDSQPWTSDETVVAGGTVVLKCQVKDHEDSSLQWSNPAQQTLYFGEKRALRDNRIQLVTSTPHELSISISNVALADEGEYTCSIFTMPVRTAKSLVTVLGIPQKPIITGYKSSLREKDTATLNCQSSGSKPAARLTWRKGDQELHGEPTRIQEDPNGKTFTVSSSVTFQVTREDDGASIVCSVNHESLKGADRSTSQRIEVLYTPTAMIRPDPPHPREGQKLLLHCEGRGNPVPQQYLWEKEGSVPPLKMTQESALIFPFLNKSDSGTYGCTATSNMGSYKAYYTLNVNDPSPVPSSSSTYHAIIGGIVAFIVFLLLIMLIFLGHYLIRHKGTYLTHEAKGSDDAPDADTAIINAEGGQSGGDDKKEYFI

T2: mouse CADM3 (mouse, UniProt Q99N28 23-396)
T2 construct: Full-length gene expressed transiently on Expi293F cells; also called mouse CADM3/Expi293F cells; Mouse CADM3-expressing cells
T2 sequence: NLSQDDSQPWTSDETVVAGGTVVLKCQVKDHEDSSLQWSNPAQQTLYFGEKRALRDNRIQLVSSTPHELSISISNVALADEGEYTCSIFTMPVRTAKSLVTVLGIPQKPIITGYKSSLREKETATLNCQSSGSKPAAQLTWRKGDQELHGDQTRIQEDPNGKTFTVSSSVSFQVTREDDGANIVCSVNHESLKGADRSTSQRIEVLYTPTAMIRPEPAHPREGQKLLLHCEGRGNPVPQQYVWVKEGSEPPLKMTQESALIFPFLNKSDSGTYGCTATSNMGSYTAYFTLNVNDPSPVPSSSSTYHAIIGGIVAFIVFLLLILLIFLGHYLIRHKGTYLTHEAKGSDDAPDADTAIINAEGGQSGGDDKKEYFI


Assays:
[1] = target: T1, human CADM3; test: flow cytometry, 10 ug/mL, human CADM3/Expi293F vs parent Expi293F cells
Protocol: (§1) After washing with SB, the cells were suspended in SB, and the fluorescence intensity of each cell was measured using a flow cytometer FACS CANTO II (manufactured by Becton, Dickinson and Company). Note that as a negative control, 10 μg/mL of the anti-AVM antibody was used.
(§2) The detection results were analyzed, and a mean fluorescence intensity (MFI) was calculated using a geometric mean. Further, with respect to the MFI when the concentration of each antibody was 10 μg/mL, the ratio of the MFI (mean fluorescence intensity ratio) between the human CADM3/Expi293F cells and the Expi293F cells (parent cell line) was calculated.
(§3) With respect to the produced humanized anti-CADM3 VHH-Fc antibodies, reactivity with Expi293F cells, human CADM3/Expi293F cells, and mouse CADM3/Expi293F cells was analyzed by the same procedure as in Example 3.

[2] = target: T2, mouse CADM3; test: flow cytometry, 10 ug/mL, mouse CADM3/Expi293F vs parent Expi293F cells
Protocol: as §1, §2, §3

[3] = target: T2, mouse CADM3; test: as above; remark: listed apart in the source
Protocol: as §1, §2
Further, also with respect to AVM IgG4PE(R409K)_iCADM3_3R1-L5 dVHH, AVM IgG4PE(R409K)_iCADM3_3R1-L8 dVHH, AVM IgG4PE(R409K)_iCADM3_3R1-L10 dVHH, and AVM IgG4PE(R409K)_iCADM3_3R1-L11 dVHH, reactivity with the Expi293F cells, the human CADM3/Expi293F cells, and the mouse CADM3/Expi293F cells was analyzed by the same procedure, and the results are shown in Table 5.

| Binder | Mean fluorescence intensity ratio [1] | Mean fluorescence intensity ratio [2] | Mean fluorescence intensity ratio [3] |
| --- | --- | --- | --- |
| iCADM3_3R1-L11_02 VHH-hG4PE(R409K) (Fc fusion, also called iCADM3-3R1-L11_02 humanized antibody; not shown: Hinge-CH2-CH3 region of the human IgG4 heavy chain constant region (IgG4 variant)) EVQLVESGGGLIQPGGSLRLSCAASGSTVSFNAMGWYRQAPGKGRVLVAVITSGGYTNYADSVKGRFTISRDNSKNTVYLQMNSLRAEDTAVYYCNAEGVYSDYVIMNYWGQGTLVTVSS | 12.4 | 27.9 |  |
| iCADM3_3R1-L11_01 VHH-hG4PE(R409K) (Fc fusion, also called iCADM3-3R1-L11_01 humanized antibody; not shown: Hinge-CH2-CH3 region of the human IgG4 heavy chain constant region (IgG4 variant)) EVQLVESGGGLIQPGGSLRLSCAASGSTVSFNAMGWYRQAPGKGLGLVAVITSGGYTNYADSVKGRFTISRDNSKNTLFLQMNSLRAEDTAVYYCNAEGVYSDYVIMNYWGQGTLVTVSS | 12.2 | 12.5 |  |
| iCADM3_3R1-L11_03 VHH-hG4PE(R409K) (Fc fusion, also called iCADM3-3R1-L11_03 humanized antibody; not shown: Hinge-CH2-CH3 region of the human IgG4 heavy chain constant region (IgG4 variant)) EVQLVESGGGLIQPGGSLRLSCAASGSTVSFNAMGWYRQAPGKQRGLVSVITSGGYTNYADSVKGRFTISRDNSKNTVYLQMNSLRAEDTAVYYCNAEGVYSDYVIMNYWGQGTLVTVSS | 24.4 | 33.8 |  |
| AVM IgG4PE(R409K)_iCADM3_3R1-L5 dVHH (bispecific antibody, also called anti-AVM-IgG4-CADM3 VHH bispecific antibody) heavy: not shown light: QFVLSQPNSVSTNLGSTVKLSCKRSTGNIGSNYVSWYQQHEGRSPTTMIYRDDKRPDGVPDRFSGSIDRSSDSALLTINNVQTEDEADYFCQSYSSGINIFGGGTKLTVLGQPKAAPSVTLFPPSSEELQANKATLVCLISDFYPGAVTVAWKADSSPVKAGVETTTPSKQSNNKYAASSYLSLTPEQWKSHRSYSCQVTHEGSTVEKTVAPTECS |  |  | 1.96 |

Next, values leading:

| Mean fluorescence intensity ratio [1] | Mean fluorescence intensity ratio [2] | Mean fluorescence intensity ratio [3] | Binder |
| --- | --- | --- | --- |
| 11.1 | 24.6 |  | iCADM3_3R1-L11_05 VHH-hG4PE(R409K) (Fc fusion, also called iCADM3-3R1-L11_05 humanized antibody; not shown: Hinge-CH2-CH3 region of the human IgG4 heavy chain constant region (IgG4 variant)) EVQLVESGGGLIQPGGSLRLSCAASGSIFSFNAMGWYRQAPGKGRVLVAVITSGGYTNYADSVKGRFTISRDNSKNTVYLQMNSLRAEDTAVYYCNAEGVYSDYVIMNYWGQGTLVTVSS |
| 33 | 42.2 |  | iCADM3_3R1-L11_06 VHH-hG4PE(R409K) (Fc fusion, also called iCADM3-3R1-L11_06 humanized antibody; not shown: Hinge-CH2-CH3 region of the human IgG4 heavy chain constant region (IgG4 variant)) QVQLVESGGGLVQAGGSLRLSCAASGSIFSFNAMGWYRQAPGKQRGLVAVITSGGYTNYADSVKGRFTISRDNSKNTVFLQMNSLRAEDTAVYYCNAEGVYSDYVIMNYWGQGTLVTVSS |
| 22.5 | 26.7 |  | iCADM3_3R1-L11_04 VHH-hG4PE(R409K) (Fc fusion, also called iCADM3-3R1-L11_04 humanized antibody; not shown: Hinge-CH2-CH3 region of the human IgG4 heavy chain constant region (IgG4 variant)) EVQLVESGGGLIQAGGSLRLSCAASGSIVSFNAMGWYRQAPGKQRGLVAVITSGGYTNYADSVKGRFTISRDNSKNTLFLQMNSLRAEDTAVYYCNAEGVYSDYVIMNYWGQGTLVTVSS |
